# Source: the Human Domainome abundance scans (Beltran et al. 2025)
# ± gives the uncertainty stated by the source.
# B1: E3 ubiquitin-protein ligase NEDD4, residues 836 to 881; numbered along this chain, P46934 (parent)
# chain: EIEQGFLPKGWEVRHAPNGRPFFIDHNTKTTTWEDPRLKIPAHLRG
# B2: POU domain, class 2, transcription factor 1, residues 285 to 354; numbered along this chain, P14859 (parent)
# chain: LEELEQFAKTFKQRRIKLGFTQGDVGLAMGKLYGNDFSQTTISRFEALNLSFKNMCKLKPLLEKWLNDAE
# Variants of: B1
# Assay: abundance fitness (aPCA) (normalised: wild type 0, dead -1); higher = more abundant; growth selection in yeast, the domain comes from the species named
# Conditions: Homo sapiens
row,Variant,abundance fitness
1,G46S,-0.002 ± 0.094
2,G46D,-0.088 ± 0.16
3,G46A,-0.249 ± 0.26
4,R45W,-0.202 ± 0.078
5,R45S,-0.131 ± 0.054
6,R45N,0.017 ± 0.037
7,R45T,-0.074 ± 0.041
8,R45I,-0.454 ± 0.1
9,R45H,0.104 ± 0.076
10,R45Y,-0.072 ± 0.041
11,R45P,0.006 ± 0.058
12,R45L,-0.182 ± 0.045
13,R45V,-0.055 ± 0.049
14,R45K,-0.016 ± 0.059
15,R45Q,-0.11 ± 0.091

# Variants of: B2
# Assay: as above
# Conditions: Homo sapiens
row,Variant,abundance fitness
1,L50D,-0.026 ± 0.051
2,L50E,-0.041 ± 0.044
3,L50T,-0.073 ± 0.026
4,L50V,-0.1 ± 0.042
5,L50N,-0.385 ± 0.075
6,R44H,-0.027 ± 0.048
7,R44I,-0.794 ± 0.14
8,R44T,-0.089 ± 0.061
9,R44C,-0.053 ± 0.15
10,R44W,-0.253 ± 0.092
11,R44K,-0.048 ± 0.052
12,Y33F,-0.031 ± 0.05
13,Y33S,-0.039 ± 0.027
14,Y33Q,-0.067 ± 0.028
15,Y33R,-0.103 ± 0.022
16,Y33K,-0.053 ± 0.043
17,Y33A,-0.045 ± 0.053
18,Y33I,-0.019 ± 0.039
19,Y33E,-0.047 ± 0.068
20,W65L,-0.305 ± 0.07
21,W65S,-0.728 ± 0.062
22,W65H,-0.5 ± 0.18
23,W65V,-0.262 ± 0.073

row,Variant,abundance fitness
1,W65T,-0.294 ± 0.045
2,T41I,-0.067 ± 0.058
3,T41H,-0.052 ± 0.052
4,T41E,-0.163 ± 0.089
5,T41A,-0.02 ± 0.025
6,T41N,-0.029 ± 0.075
7,T41M,-0.029 ± 0.036
8,G19M,-0.471 ± 0.26
9,G19V,-0.214 ± 0.44
10,G19D,-0.314 ± 0.22
11,E63V,-0.095 ± 0.086
12,E63T,-0.1 ± 0.12
13,E63L,0.024 ± 0.046
14,E63I,-0.22 ± 0.13
15,E63R,-0.199 ± 0.1
16,E63A,0.07 ± 0.081
17,D36H,-0.077 ± 0.038
18,D36N,-0.043 ± 0.068
19,D36K,-0.028 ± 0.058
20,D36L,0.014 ± 0.041
21,D36P,-0.058 ± 0.047
22,D36Y,-0.037 ± 0.03
23,V25F,-0.372 ± 0.17

row,Variant,abundance fitness
1,V25L,-0.349 ± 0.26
2,V25A,-0.049 ± 0.064
3,K57S,-0.006 ± 0.02
4,K57G,-0.082 ± 0.05
5,K57F,-0.027 ± 0.033
6,L58W,0.002 ± 0.035
7,L58F,-0.026 ± 0.034
8,L58K,-0.202 ± 0.063
9,L58H,-0.046 ± 0.038
10,L58D,-0.474 ± 0.052
11,L58P,-0.802 ± 0.03
12,L58N,-0.396 ± 0.065
13,L58E,-0.526 ± 0.06
14,Q22T,-0.011 ± 0.041
15,Q22N,-0.119 ± 0.075
16,Q22Y,-0.029 ± 0.06
17,Q22M,-0.134 ± 0.051
18,Q22S,-0.005 ± 0.028
19,Q22E,-0.024 ± 0.043
20,Q22V,0 ± 0.022
21,Q22W,-0.072 ± 0.032
22,K59R,-0.005 ± 0.023
